Laboratory results taken from the supplement of paper PMC12764529.
± gives the half width of the 95% confidence interval.

How the values were obtained:
[1] = folding stability dG unfold from trypsin proteolysis; higher = more stable
Procedure, shortened: (§1)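 Sequencing followed digestion of designed mini-proteins with trypsin and chymotrypsin, each at 11 concentrations in threefold dilutions together with a no-protease condition. The mini-proteins were under 80 residues, had no cysteine, sat in a PA-tagged cDNA display construct, and were kept only if AlphaFold2 dimer inter-PAE was above 15. From the counts, Bayesian fitting gave K50, and unfolding free energy was derived against a sequence-predicted unfolded-state K50 and a shared folded-state K50, per protease or combined.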

[2] = folding stability dG unfold (combined trypsin and chymotrypsin); higher = more stable
Procedure, shortened: as §1

[3] = folding stability dG unfold from chymotrypsin proteolysis; higher = more stable
Procedure, shortened: as §1

Sequence | folding stability dG unfold [1] [kJ/mol] | folding stability dG unfold [2] [kJ/mol] | folding stability dG unfold [3] [kJ/mol]
SAMTIKIEVINEKGEKIEITIPVKKEDLEKLKEEIEKELKKLAEEKGEKVKVEIVEVDENGYLKIRVYKSAG [r14_622_TrROS_Hall] | 11.5 ± 0.837 | 11.4 ± 0.879 | 10.6 ± 0.247
SAMTITVVADSAEEAERAARELAERLREALRELGIEGAEIEIKVTVLPAPPPERVLVRDPETDEWKEVPSAG [r14_475_TrROS_Hall] | 0.771 ± 0.586 | 4.1 ± 0.46 | 4.93 ± 0.13
SAMTIVIRLPPPPPPLTAEELAELLGAEVTEIRVERNEDGELVVTITVREDMSEEQRRRLLELLRERAESAG [r14_421_TrROS_Hall] | 18.1 ± 0.293 | 16.8 ± 0.314 | 16 ± 0.201
SAMTKLVEFDSEEEYEAAVKAAAAAGESVLARLKDPSGTYTVVEVEVDPETGTVTVKKTEKVPVDGSLGSAG [r14_455_JUSTAS] | 2.6 ± 0.0753 | 4.78 ± 0.176 | 5.73 ± 0.113
SAMTLEEAKKKGLVVIRVKIEVTLPNGEKREFERVIVAESLEEALEALREELEREGYKVEIVEIEIEKLSAG [r14_854_TrROS_Hall] | 11.5 ± 0.669 | 8.55 ± 0.879 | 6.31 ± 0.46
SAMTLTVRVKATPEQLKEALEEETGAKVTIEEEEDGVLTITVEVSEEEREKLAEALKKLPGLEIEIEEESAG [r14_521_TrROS_Hall] | 8.13 ± 0.28 | 7.93 ± 0.381 | 7.91 ± 0.109
SAMTPEEIKKKVEELLKELAKELNAEVTSVKVDKETKTITVTVKVKLPNGETKTLTLKFTIDKDGKITFSAG [r14_183_TrROS_Hall] | 15.4 ± 0.502 | 18.1 ± 0.586 | 18.8 ± 0.331
SAMTPEELAARLAEALRREAEEAGLEIVDVRVEYDEETDTVTVEVVVRNKETGELVTRRVEIRSLEELLSAG [r14_409_TrROS_Hall] | 18.9 ± 0.586 | 16.7 ± 0.418 | 13.5 ± 0.247
SAMTVTITLPPSISPEEAKAALEAAFPGEDIQVTTTTDPNAGTLTVTVTFSSPEDAARAAALLAEVRAASAG [r14_443_JUSTAS] | 12 ± 0.192 | 18.1 ± 0.322 | 19.6 ± 0.28
SAMVIEIEIPSEELLKKLEELLPPGARIKKVEIVKENGKVKIIVELEPGMSEEEKERIKKKIEELLKEESAG [r14_306_TrROS_Hall] | 20.6 ± 1.92 | > 25.1 | 15 ± 1.67
SAMVLDVSELTKKAIEELKKKNPKPLSPEEIVELGKKVAAEVAEKLGIPLKEIKVEPTGKHPKAVAELPSAG [r14_147_TrMRF] | 2.21 ± 0.402 | 1.64 ± 2.18 | 3.51 ± 0.247
SAMVTIDYETLKELYEAGDPAKVEEILKKAYEEDPNKTITVIVPEDEKYKNLVLEAAKKMGLPITITGPSAG [r14_236_JUSTAS] | 10.3 ± 0.285 | 11.9 ± 0.305 | 12.5 ± 0.213
SAMYLIKITIYNEETGEKIAELTLEVEEEDLEELLEEIRKKLNLPPGAKIKVEIVPLEPVVLPDGKLLKSAG [r14_297_TrROS_Hall] | 3.03 ± 0.502 | 7.09 ± 1.13 | 10.6 ± 0.837
SAMYTLRTISYDPNTGVRKLELTVDPAHPDRPVPEAVTQAVADAYAAQGWSVTVTRHPDGSVVIDVPVPSAG [r14_865_JUSTAS] | 7.69 ± 0.13 | 7.85 ± 0.092 | 7.76 ± 0.113
SAMYVYRARVEVRGPDGELLAEEEIVAESPEELKVAVLERFGLKESEIVRLEVEPVIPLEEFLELLEKGSAG [r14_852_TrMRF] | 8.59 ± 0.176 | 10 ± 0.46 | 10.4 ± 0.285
SAPDAKVEFNPKLVRKGDELLLLVEVKLSPDVDEVVVEIEVTGPDGSPFKVEAVQFPETGTVLVKAVLPASA [r9_159_TrMRF] | 5.55 ± 0.326 | 7.32 ± 0.393 | 8.55 ± 0.255

Sequence | folding stability dG unfold [1] [kJ/mol] | folding stability dG unfold [2] [kJ/mol] | folding stability dG unfold [3] [kJ/mol]
SAPDVVVVPIKIPPGEMSPSDMIEMIEQAFDQFNWPITPDRIEKLVDKAMKNGDSIWAVIRYLREEGWLSAG [r14_364_TrROS] | 11 ± 0.205 | 12 ± 0.318 | 12.64 ± 0.0879
SAPFQIKEITVNPKDGEAEINFPLENLPPPWMIHIFDKDKGKTQWIPPGGEIEIRAPEGPVKIMIFWRDSAG [r14_134_TrROS] | 5.33 ± 0.502 | 4.87 ± 1.05 | 4.1 ± 1.88
SAPKIKEIKEFDPETKKILIKVETPEGEKEIPIPAGGNMTVEEAIEKVKEFLEKELPEGVELEVEEITISAG [r14_422_TrMRF] | 2.07 ± 0.502 | 4.19 ± 0.711 | 5.65 ± 0.418
SAPKVISATVTYNPATGKVTVTVTLEDADGPVTVTYTFDGDGNVPVTVYDTRTTKPLGTITVPADQLNLSAG [r14_608_TrMRF] | 4.43 ± 0.335 | 4.75 ± 0.753 | 5.06 ± 0.962
SAPNYPFFVRIKLPGNGQEVEFPIESPEEADEMLDNFANHPHIKDIDIYRPDGEEVEIEIKIPPEALKQSAG [r14_747_TrROS] | -2.6 ± 1.26 | 0.139 ± 1.09 | 0.5 ± 0.669
SAPPDFKIKDVKVRRHPHKQEDGGKEKEFPMYHVNVRIEDPNGNKIPINFMMDDPEEMLRFARKLLKKLSAG [r14_36_TrROS] | 9.2 ± 0.586 | 8.95 ± 1.05 | 9.08 ± 0.837
SAPPIEELSEEEIKKLVEEELKKKGISPENVKIEITIEKPPGPEYRVKVKVTYKKNKNYLEFEFEFELPSAG [r14_703_JUSTAS] | 9.77 ± 0.837 | 16.6 ± 1.38 | 17.7 ± 0.711
SAPPNVWVSRTDPATGAVHAEDIPFPDGATAETVPDPATGTVAQSSDGPPAVLEEVRAALPPDASIEPASAG [r14_252_JUSTAS] | -2.32 ± 0.628 | -0.734 ± 0.837 | -1.02 ± 1.76
SAPPRISIPWDPESGNWRVKVYNPKDPGKKREIDIPMKELQAKHGKPMSPNEIAQWLVKKGIDYVEIYPSAG [r14_809_TrROS] | 0.767 ± 0.795 | 1.71 ± 0.837 | 2.34 ± 0.879
SAPVRGPDGSVFEVDDITFDPDTRTVTVTTPEGTYTFPVPPGWVVEFDPVTKEITVRPLPDLSPENNPFPSA [r9_551_TrMRF] | 10.6 ± 0.628 | 11.7 ± 0.406 | 11.9 ± 0.251
SARIAEILRELGMEVSVENHPDGMNEITFKFPNGYKIQVHMSPNGIDVQIQPPEGERRTFSIDEIKDLLSAG [r14_578_TrROS] | 9.34 ± 0.297 | 11.6 ± 0.339 | 13.2 ± 0.192
SARPLVVTNPKGSTVRLDPSTGTAEFRNLVTGETVTAKVKPVPNGVLVEVEEGGVKKTFVVPEDGKIVLGSA [r9_239_TrMRF] | 0.719 ± 0.218 | -0.12 ± 0.276 | -1.56 ± 0.364
SARRDGSKVFLELERVVPLDVPLETVLEEVRRLFPEDAEIRLEAVPRRDLLDGVPREYRVVRVIVVRDDSAG [r14_633_TrMRF] | 4.43 ± 0.243 | 7.49 ± 0.628 | 9.05 ± 0.163
SARTLTITVPPGYRARVVVTLENGEPLELEVPPSESVTLTIPPGVPALVRVEVFYPDGSVGEFEVEVDDSAG [r14_568_TrMRF] | 19.5 ± 1.05 | 20.1 ± 0.837 | 19.9 ± 0.586
SASEDETVETTTTTTSTFTLPNGETVTLTTTTKTTEKILPETGEVVESTTTTTTVTRTDASTTTTVATSSAG [r14_333_JUSTAS] | 4.7 ± 0.285 | 5.32 ± 0.46 | 5.12 ± 0.343
